Experimental data reported in article PMC6082870 (2018).

How the values were obtained:
Assay in all cases: SPR
[1] = biological target: T1, human lysyl hydroxylase 3 (LH3/PLOD3), wild type (human, UniProt O60568 25-738, N-linked glycosylations at Asn63 and Asn548)
T1 chain: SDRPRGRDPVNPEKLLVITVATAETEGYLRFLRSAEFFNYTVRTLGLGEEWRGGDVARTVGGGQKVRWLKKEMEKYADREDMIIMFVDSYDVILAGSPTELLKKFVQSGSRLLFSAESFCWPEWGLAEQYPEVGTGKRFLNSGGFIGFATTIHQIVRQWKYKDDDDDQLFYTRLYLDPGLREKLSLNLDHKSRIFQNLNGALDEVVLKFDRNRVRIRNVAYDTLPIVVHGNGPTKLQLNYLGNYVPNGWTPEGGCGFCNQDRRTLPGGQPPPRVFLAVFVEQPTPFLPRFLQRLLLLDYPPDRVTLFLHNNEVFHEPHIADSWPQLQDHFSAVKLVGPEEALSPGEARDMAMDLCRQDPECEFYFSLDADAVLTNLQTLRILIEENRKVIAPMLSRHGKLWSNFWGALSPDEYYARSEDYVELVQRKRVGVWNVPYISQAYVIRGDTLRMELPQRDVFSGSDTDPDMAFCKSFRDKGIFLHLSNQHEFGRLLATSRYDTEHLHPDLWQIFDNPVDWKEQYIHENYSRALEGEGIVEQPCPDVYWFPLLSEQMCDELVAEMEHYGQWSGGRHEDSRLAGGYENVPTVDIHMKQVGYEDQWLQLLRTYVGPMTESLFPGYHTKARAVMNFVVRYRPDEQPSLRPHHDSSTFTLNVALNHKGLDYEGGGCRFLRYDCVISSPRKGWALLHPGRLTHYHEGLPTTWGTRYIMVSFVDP

LH3 Y114A mutant = LH3 Y114A mutant (human, UniProt O60568 25-738, Y114A)
LH3 Y114A mutant, sequence (O60568 25-738 Y114A): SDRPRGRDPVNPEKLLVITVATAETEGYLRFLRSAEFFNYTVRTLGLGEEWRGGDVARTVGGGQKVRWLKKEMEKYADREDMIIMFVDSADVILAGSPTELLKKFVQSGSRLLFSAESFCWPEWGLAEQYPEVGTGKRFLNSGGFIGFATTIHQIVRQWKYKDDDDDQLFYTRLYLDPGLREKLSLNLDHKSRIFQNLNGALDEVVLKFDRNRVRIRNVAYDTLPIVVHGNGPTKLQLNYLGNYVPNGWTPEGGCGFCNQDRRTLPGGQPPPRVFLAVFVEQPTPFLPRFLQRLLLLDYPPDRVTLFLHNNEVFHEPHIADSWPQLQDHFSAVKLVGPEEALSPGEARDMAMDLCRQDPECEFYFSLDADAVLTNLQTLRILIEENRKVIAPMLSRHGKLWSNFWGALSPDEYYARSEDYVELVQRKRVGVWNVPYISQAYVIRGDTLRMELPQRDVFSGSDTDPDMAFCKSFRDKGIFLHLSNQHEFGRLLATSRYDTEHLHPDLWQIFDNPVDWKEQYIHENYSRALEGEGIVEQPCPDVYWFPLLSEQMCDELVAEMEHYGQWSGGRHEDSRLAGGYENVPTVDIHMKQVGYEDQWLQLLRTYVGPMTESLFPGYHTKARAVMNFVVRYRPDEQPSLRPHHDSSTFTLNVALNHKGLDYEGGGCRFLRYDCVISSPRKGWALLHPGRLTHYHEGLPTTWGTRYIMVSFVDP

LH3 W75A mutant = LH3 W75A mutant (human, UniProt O60568 25-738, W75A)
LH3 W75A mutant, sequence (O60568 25-738 W75A): as the sequence (O60568 25-738 Y114A) above, with W51A, A90Y counted along it

Binder | Kd [1] | Kd (LH3 Y114A mutant) | Kd (LH3 W75A mutant)
IKGIKGIKG | 6.7 mM |  | 
ARGIKGIRGFS | 4.4 mM | 6.3 mM | 4.7 mM
GIKGIKGIKGIK | 2.4 mM |  | 
